According to patent US20220177587A1, “METHODS AND USES OF VARIANT CD80 FUSION PROTEINS AND RELATED CONSTRUCTS” (Alpine Immune Sciences, Inc., priority 2018, published 2022):
Substitutions are numbered along the chain they refer to. Names may count otherwise.

B1: E35D/M47L/A71G/D90G (protein)
chain: VIHVTKEVKEVATLSCGHNVSVEELAQTRIYWQKDKKMVLTMMSGDLNIWPEYKNRTIFDITNNLSIVILGLRPSDEGTYECVVLKYEKGAFKREHLAEVTLSVKAD
B2: H18Y/M47L/V68M/D90G (protein)
chain: B1 chain with H18Y, D35E, V68M, G71A
B3: A26E/E35D/V68M/D90G (protein)
chain: B1 chain with A26E, L47M, V68M, G71A
B4: H18Y/E35D/A71G/D90G (protein)
chain: B1 chain with H18Y, L47M
B5: A26E/E35D/M47L/D90G (protein)
chain: B1 chain with A26E, G71A
B6: H18Y/A26E/V68M/D90G (protein)
chain: B1 chain with H18Y, A26E, D35E, L47M, V68M, G71A
B7: A26E/M47L/A71G/D90G (protein)
chain: B1 chain with A26E, D35E
B8: H18Y/A26E/V68M/A71G (protein)
chain: B1 chain with H18Y, A26E, D35E, L47M, V68M, G90D
B9: E35D/M47L/V68M/D90G (protein)
chain: B1 chain with V68M, G71A
B10: H18Y/A26E/M47L/A71G (protein)
chain: B1 chain with H18Y, A26E, D35E, G90D
B11: H18C/A26P/E35D/M47L/V68M/A71G (protein, UniProt P33681 35-288, looked up, variant H18C A26P E35D M47L V68M A71G)
T-lymphocyte activation …: VIHVTKEVKEVATLSCGCNVSVEELPQTRIYWQKDKKMVLTMMSGDLNIWPEYKNRTIFDITNNLSIMILGLRPSDEGTYECVVLKYEKDAFKREHLAEVTLSVKADFPTPSISDFEIPTSNIRRIICSTSGGFPEPHLSWLENGEELNAINTTVSQDPETELYAVSSKLDFNMTTNHSFMCLIKYGHLRVNQTFNWNTTKQEHFPDNLLPSWAITLISVNGIFVICCLTYCFAPRCRERRRNERLRRESVRPV
B12: H18T/A26N/E35D/M47L/V68M/A71G (protein, UniProt P33681 35-288, looked up, variant H18T A26N E35D M47L V68M A71G)
T-lymphocyte activation …: B11 T-lymphocyte activation … with C18T, P26N
modifications: Fc fusion
B13: H18V/A26P/E35D/M47L/V68M/A71G (protein, UniProt P33681 35-288, looked up, variant H18V A26P E35D M47L V68M A71G)
T-lymphocyte activation …: B11 T-lymphocyte activation … with C18V
B14: H18L/A26N/D46E/V68M/A71G/D90G (protein, UniProt P33681 35-288, looked up, variant H18L A26N D46E V68M A71G D90G)
T-lymphocyte activation …: B11 T-lymphocyte activation … with C18L, P26N, D35E, D46E, L47M, D90G

The molecules below were run against T1, CD28 (Homo sapiens, UniProt P10747) (assay: Jurkat/IL2 + CHO/OKT3 +/- PD-L1 reporter assay: PD-L1-dependent CD28 costimulation). Conditions: Table E22; Jurkat/IL2 + CHO/OKT3/PD-L1; 5.0 nM.
Format: cell-based
Design: host or cells: Jurkat cells expressing an IL-2-luciferase reporter
Outline: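 Jurkat reporter cells (100,000/well) preincubated 15 min at room temperature with test protein, then cocultured 5 h at 37 °C with CHO aAPCs bearing anti-CD3 scFv (OKT3) with or without PD-L1. Luciferase luminescence (RLU) read after lysis-substrate addition.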

Molecule | Fold Increase over WT CD80-IgV-Fe
B1 | 2.01 fold
B2 | 2.14 fold
B3 | 2.23 fold
B4 | 3.81 fold
B5 | 2.16 fold
B6 | 2.90 fold
B7 | 2.12 fold
B8 | 1.20 fold
B9 | 1.82 fold
B10 | 2.84 fold

Same assay, conditions: Table E22; Jurkat/IL2 + CHO/OKT3/PD-L1; CD80 Conc 5.0 nM

Molecule | Relative Luciferase Units (RLU), CD80 Conc 5.0 nM
B1 | 784 RLU
B2 | 834 RLU
B3 | 871 RLU
B4 | 1487 RLU
B5 | 843 RLU
B6 | 1131 RLU
B7 | 827 RLU
B8 | 469 RLU
B9 | 711 RLU
B10 | 1107 RLU

Same assay, conditions: Table E24; Jurkat/IL2 + CHO/OKT3/PD-L1; 5.0 nM

Molecule | Fold Increase over WT CD80-IgV-Fe | Relative Luciferase Units (RLU), CD80 Conc 5.0 nM
B11 | 5.5 | 936 RLU
B12 | 6.2 | 1053 RLU
B13 | 4.7 | 808 RLU
B14 | 4.8 | 815 RLU

What follows are molecules tested against huCTLA4 (Homo sapiens, UniProt P16410) (assay: Flow binding to CHO cells stably expressing CTLA4). Conditions: Table E20; CHO cells stably expressing CTLA4; 33.3 nM.
Design: huCTLA4 and huPD-L1, full-length mammalian surface expression constructs were generated; expressed in transfected cells; host or cells: CHO cells, lentiviral transduction, sorted to >98% purity
Outline: (§1)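 Flow cytometry on transfected CHO cells or CD28+ Jurkat/IL2 reporter cells, blocked 20 min in PBS/1% BSA/0.1% azide. Fusion protein 45 min on ice; PE anti-human Fc 1:150, 30 min on ice; fixed in 2% formaldehyde. Read-out PE MFI, EC50 calculated.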

Chain of huCTLA4 (P16410 36-223): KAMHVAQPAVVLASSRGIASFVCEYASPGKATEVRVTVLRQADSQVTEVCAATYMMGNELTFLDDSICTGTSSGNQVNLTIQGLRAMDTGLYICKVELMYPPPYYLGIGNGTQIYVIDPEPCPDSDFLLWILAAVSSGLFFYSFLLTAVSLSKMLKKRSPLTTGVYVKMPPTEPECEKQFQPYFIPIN

Molecule | CTLA4 MFI at 33.3 nM
B1 | 20921
B2 | 19006
B3 | 13879
B4 | 25886
B5 | 18167
B6 | 25794
B7 | 21955
B8 | 11323
B9 | 27607
B10 | 22108

Same assay, conditions: Table E20; MFI at 33.3 nM relative to CD80 WT IgV-Fc

Molecule | CTLA4 Fold change to WT CD80
B1 | 15.4 fold
B2 | 14.0 fold
B3 | 10.2 fold
B4 | 19.0 fold
B5 | 13.4 fold
B6 | 19.0 fold
B7 | 16.2 fold
B8 | 8.3 fold
B9 | 20.3 fold
B10 | 16.3 fold

Same assay, conditions: Table E23; CD80 IgV-Fc (inert) at 33.3 nM; CHO cells stably expressing CTLA4

Molecule | CTLA4 MFI at 33.3 nM
B11 | 23371
B12 | 20911
B13 | 16192
B14 | 17045

Same assay, conditions: Table E23; MFI at 33.3 nM relative to CD80 WT IgV-Fc

Molecule | CTLA4 Fold change to WT CD80
B11 | 16.9
B12 | 15.1
B13 | 11.7
B14 | 12.3

These molecules were tested against huPD-L1 (Homo sapiens, UniProt Q9NZQ7) (assay: Flow binding to CHO cells stably expressing PD-L1). Conditions: Table E20; CHO cells stably expressing PD-L1; 33.3 nM.
Design: huCTLA4 and huPD-L1, full-length mammalian surface expression constructs were generated; expressed in transfected cells; host or cells: CHO cells, lentiviral transduction, sorted to >98% purity
Outline: as §1

Chain of huPD-L1 (Q9NZQ7 19-290): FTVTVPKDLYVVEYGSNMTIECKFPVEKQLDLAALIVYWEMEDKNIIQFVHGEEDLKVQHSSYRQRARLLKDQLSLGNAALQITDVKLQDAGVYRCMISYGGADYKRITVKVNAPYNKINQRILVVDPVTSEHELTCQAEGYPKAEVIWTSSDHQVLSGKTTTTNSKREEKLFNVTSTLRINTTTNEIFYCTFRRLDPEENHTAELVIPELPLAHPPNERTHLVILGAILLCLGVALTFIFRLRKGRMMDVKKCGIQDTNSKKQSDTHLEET

Molecule | PD-L1 MFI at 33.3 nM
B1 | 12073
B2 | 21768
B3 | 6987
B4 | 8524
B5 | 9577
B6 | 12845
B7 | 13204
B8 | 6866
B9 | 23482
B10 | 15563

Same assay, conditions: Table E20; MFI at 33.3 nM relative to CD80 WT IgV-Fc

Molecule | PD-L1 Fold change to WT CD80
B1 | 276.9 fold
B2 | 499.3 fold
B3 | 160.3 fold
B4 | 195.5 fold
B5 | 219.7 fold
B6 | 294.6 fold
B7 | 302.8 fold
B8 | 157.5 fold
B9 | 538.6 fold
B10 | 356.9 fold

Same assay, conditions: Table E20; ratio of MFI at 33.3 nM

Molecule | Ratio of PDL1:CD28
B1 | 9.1
B2 | 5.7
B3 | 4.2
B4 | 6.5
B5 | 6.2
B6 | 5.4
B7 | 6.8
B8 | 69.1
B9 | 6.9
B10 | 25.5

Same assay, conditions: Table E23; CD80 IgV-Fc (inert) at 33.3 nM; CHO cells stably expressing PD-L1

Molecule | PD-L1 MFI at 33.3 nM
B11 | 67010
B12 | 68498
B13 | 52405
B14 | 67999

Same assay, conditions: Table E23; MFI at 33.3 nM relative to CD80 WT IgV-Fc

Molecule | PD-L1 Fold change to WT CD80
B11 | 406.1
B12 | 415.1
B13 | 317.6
B14 | 412.1

Same assay, conditions: Table E23; ratio of MFI at 33.3 nM

Molecule | Ratio of PDL1:CD28
B11 | 35.2
B12 | 50.1
B13 | 21.4
B14 | 9.4

Each molecule was assayed against T1, CD28 (assay: Flow binding to Jurkat/IL2 reporter cells (CD28)). Conditions: Table E20; Jurkats (CD28); 33.3 nM.
Design: host or cells: Jurkat cells expressing an IL-2-luciferase reporter
Outline: as §1

Molecule | CD28 MFI at 33.3 nM
B1 | 1331
B2 | 3795
B3 | 1683
B4 | 1310
B5 | 1550
B6 | 2394
B7 | 1955
B8 | 99.4
B9 | 3414
B10 | 611

Same assay, conditions: Table E20; MFI at 33.3 nM relative to CD80 WT IgV-Fc

Molecule | CD28 Fold change to WT CD80
B1 | 30.3 fold
B2 | 86.4 fold
B3 | 38.3 fold
B4 | 29.8 fold
B5 | 35.3 fold
B6 | 54.5 fold
B7 | 44.5 fold
B8 | 2.3 fold
B9 | 77.8 fold
B10 | 13.9 fold

Same assay, conditions: Table E23; CD80 IgV-Fc (inert) at 33.3 nM; Jurkat (CD28)

Molecule | CD28 MFI at 33.3 nM
B11 | 1906
B12 | 1366
B13 | 2452
B14 | 7253

Same assay, conditions: Table E23; MFI at 33.3 nM relative to CD80 WT IgV-Fc

Molecule | CD28 Fold change to WT CD80
B11 | 18.7
B12 | 13.4
B13 | 24.0
B14 | 71.1
